Assay [1] has as its target T1, recombinant human TfR1 (transferrin receptor protein 1) (human, UniProt P02786 89-760).
T1 construct: Recombinant protein in SPR and ELISA; they were assigned to this molecule; also called hTfR1; huTfR1
Description: ELISA on hTfR1, Fab conjugated to DMPK-targeting oligonucleotide, % normalized RFUs. (In general: An ELISA detects its analyte on a solid surface through an enzyme-linked reagent.)

The target in assay [2] is T2, recombinant cynomolgus monkey (Macaca fascicularis) TfR1 (cynomolgus monkey (Macaca fascicularis), UniProt Q5RDH6 87-760 (Pongo abelii entry), limits assumed).
T2 construct: Recombinant protein; also called cTfR1; cyTfR1
T2 chain: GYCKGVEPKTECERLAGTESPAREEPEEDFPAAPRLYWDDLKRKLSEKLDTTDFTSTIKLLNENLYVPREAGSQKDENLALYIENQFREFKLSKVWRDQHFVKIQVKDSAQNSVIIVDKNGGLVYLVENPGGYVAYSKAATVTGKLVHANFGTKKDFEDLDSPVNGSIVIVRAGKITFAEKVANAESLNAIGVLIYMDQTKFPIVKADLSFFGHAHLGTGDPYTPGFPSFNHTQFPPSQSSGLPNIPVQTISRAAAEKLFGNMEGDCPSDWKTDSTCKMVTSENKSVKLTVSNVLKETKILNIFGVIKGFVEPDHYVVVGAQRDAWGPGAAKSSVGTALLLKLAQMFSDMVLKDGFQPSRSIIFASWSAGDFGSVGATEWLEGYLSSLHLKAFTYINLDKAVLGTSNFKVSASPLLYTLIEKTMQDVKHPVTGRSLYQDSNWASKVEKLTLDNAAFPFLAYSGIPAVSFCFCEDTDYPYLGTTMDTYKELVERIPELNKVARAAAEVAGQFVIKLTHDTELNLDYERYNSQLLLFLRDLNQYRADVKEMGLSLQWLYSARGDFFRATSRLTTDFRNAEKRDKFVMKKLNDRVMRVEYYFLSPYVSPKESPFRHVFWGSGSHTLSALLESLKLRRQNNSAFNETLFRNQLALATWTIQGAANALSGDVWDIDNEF
Description: ELISA, recombinant TfR1 coated, Fab-ASO300 conjugate (row 'Conjugate binding affinity ELISA').

Assay [3] addresses T1, recombinant human TfR1 (transferrin …). The assay is described as above.
Assay [4] has as its target T2, recombinant cynomolgus monkey (Macaca …). Briefly: Table 14, Fab-ASO300 conjugate; method not named.
Assay [5] addresses T1, recombinant human TfR1 (transferrin …). Briefly: Table 14, Fab-ASO300 conjugate; method not named.
Assay [6] deals with T2, recombinant cynomolgus monkey (Macaca …). Description: ELISA on cTfR1, Fab conjugated to DMPK-targeting oligonucleotide, % normalized RFUs.
The target is the same in assay [7]. Description: Table 14, unconjugated Fab, d0; method not named (values equal ELISA row of Table 13).
Assay [8] deals with T1, recombinant human TfR1 (transferrin …). The assay is described as above.
The target of assay [9] is T2, recombinant cynomolgus monkey (Macaca …). Briefly: ELISA on plate-coated recombinant cTfR1, fluorescent anti-(H+L) IgG-A488 detection, % normalized RFUs. As to the method: To measure binding of humanized anti-TfR antibodies to TfR1, ELISAs were conducted. High binding, black, flat bottom, 96 well plates (Corning #3925) were first coated with 100 μL/well of recombinant huTfR1 at 1 μg/mL in PBS and incubated at 4° C. overnight. Wells were emptied and residual liquid was removed. Blocking was conducted by adding 200 μL of 1% BSA (w/w) in PBS to each well. Blocking was allowed to proceed for 2 hours at room temperature on a shaker at 30) rpm. After blocking, liquid was removed and wells were washed three times with 300 μL of TBST. Anti-TfR1 antibodies were then added in 0.5% BSA/TBST in triplicate in an 8 point serial dilution (dilution range 5 μg/mL-5 ng/mL). A positive control and isotype controls were also included on the ELISA plate. The plate was incubated at room temperature on an orbital shaker for 60 minutes at 300 rpm, and the plate was washed three times with 300 μL of TBST. Anti-(H+L)IgG-A488 (1:500) (Invitrogen #A11013) was diluted in 0.5% BSA in TBST, and 100 μL was added to each well. The plate was then allowed to incubate at room temperature for 60 minutes at 300 rpm on orbital shaker. The liquid was removed and the plate was washed four times with 300 μL of TBST. Absorbance was then measured at 495 nm excitation and […] (with a 15 nm bandwidth) on a plate reader. Data was recorded and analyzed for $EC50$. […]

Assay [10] has as its target T1, recombinant human TfR1 (transferrin …). Description: ELISA on hTfR1, unconjugated Fab, % normalized RFUs.
For assay [11] the target is unchanged. Briefly: ELISA on plate-coated recombinant hTfR1, fluorescent anti-(H+L) IgG-A488 detection, % normalized RFUs. As to the method: To measure binding of humanized anti-TfR antibodies to TfR1, ELISAs were conducted. High binding, black, flat bottom, 96 well plates (Corning #3925) were first coated with 100 μL/well of recombinant huTfR1 at 1 μg/mL in PBS and incubated at 4° C. overnight. Wells were emptied and residual liquid was removed. Blocking was conducted by adding 200 μL of 1% BSA (w/w) in PBS to each well. Blocking was allowed to proceed for 2 hours at room temperature on a shaker at 30) rpm. After blocking, liquid was removed and wells were washed three times with 300 μL of TBST. Anti-TfR1 antibodies were then added in 0.5% BSA/TBST in triplicate in an 8 point serial dilution (dilution range 5 μg/mL-5 ng/mL). A positive control and isotype controls were also included on the ELISA plate. The plate was incubated at room temperature on an orbital shaker for 60 minutes at 300 rpm, and the plate was washed three times with 300 μL of TBST. Anti-(H+L)IgG-A488 (1:500) (Invitrogen #A11013) was diluted in 0.5% BSA in TBST, and 100 μL was added to each well. The plate was then allowed to incubate at room temperature for 60 minutes at 300 rpm on orbital shaker. The liquid was removed and the plate was washed four times with 300 μL of TBST. Absorbance was then measured at 495 nm excitation and […] (with a 15 nm bandwidth) on a plate reader. Data was recorded and analyzed for $EC50$. […] ELISA measurements were conducted using cynomolgus monkey (Macaca fascicularis) TfR1 (cTfR1) according to the same protocol described above for hTfR1, and results are shown in FIGS. 9B, 9D, and 9F.

For assay [12], the target named is T2, recombinant cynomolgus monkey (Macaca …). Description: Table 14, unconjugated Fab, d9 (after 9 days at 40 C); method not named.
The target of assay [13] is T1, recombinant human TfR1 (transferrin …). Described as above.
The target of assay [14] is T2, recombinant cynomolgus monkey (Macaca …). Briefly: ELISA on cTfR1, unconjugated Fab, % normalized RFUs.
The target of assay [15] is T1, recombinant human TfR1 (transferrin …). Briefly: kinetic analysis (Biacore), Table 7; TfR1 species not stated.
The target is the same in assay [16]. Description: Biacore, d0; TfR1 species not stated. On the technique in general: In SPR one partner is held on a chip, and binding of the other changes the refractive index at the surface.
For assay [17], the target named is T2, recombinant cynomolgus monkey (Macaca …). Description: ELISA, recombinant TfR1 coated, unconjugated Fab (row 'Fab binding affinity ELISA').
Assay [18] has as its target T1, recombinant human TfR1 (transferrin …). Described as above.
The target is the same in assay [19]. Briefly: Biacore, d25; TfR1 species not stated.

Broadly, the EC50 is the concentration that produces a half-maximal response. For orientation: Kd means the constant that tells how readily two partners part at equilibrium. What is called koff is a measure of how fast the partners let go of each other. One may read the kon as the second-order rate constant of association.

B1: conjugate of humanized anti-TfR Fab 5H12 VH5 (C33Y)/Vκ4 with DMPK-targeting oligonucleotide ASO300 (Fab, V domains shown)
VH: QVQLVQSGAEVKKPGASVKVSCKASGYSFTDYYINWVRQAPGQGLEWMGWIYPGSGNTRYSERFKGRVTITRDTSASTAYMELSSLRSEDTAVYYCAREDYYPYHGMDYWGQGTLVTVSS
VL: DIVMTQSPDSLAVSLGERATINCRASESVDGYDNSFMHWYQQKPGQPPKLLIFRASNLESGVPDRFSGSGSGTDFTLTISSLQAEDVAVYYCQQSSEDPWTFGQGTKLEIKR
modifications: oligonucleotide ASO300 conjugated to the Fab via linker; residue and chain not stated
As for B1, the EC50 in [1] was determined as 25.5 nM; in assay [2], 3.3 nM; in assay [3], 23.7 nM; in [6], 2.8 nM. For the same molecule, the “DMPK oligo conjugate binding” value in assay [4] and in [5] was 13.9 nM throughout.

B2: humanized anti-TfR Fab 3A4 VH3 (N54T)/Vκ4 (Fab, V domains shown)
VH: EVQLVQSGSELKKPGASVKVSCTASGFNIKDDYMYWVRQPPGKGLEWIGWIDPETGDTEYASKFQDRVTVTADTSTNTAYMELSSLRSEDTAVYYCTLWLRRGLDYWGQGTLVTVSS
VL: DIVMTQSPLSLPVTPGEPASISCRSSKSLLHSNGYTYLFWFQQRPGQSPRLLIYRMSNLASGVPDRFSGSGSGTDFTLKISRVEAEDVGVYYCMQHLEYPFTFGGGTKVEIKR
notes: also called 3A4 (VH3-N54T/Vk4)
Regarding B2, the Binding affinity was determined as 156 nM in assay [7], 2.6 nM in assay [8], 128 nM in assay [12] and 0.4 nM in assay [13]. The EC50 in [9] is over 100 nM; in [10], 2.3 nM; in assay [11], 2.3 nM; in [14], over 100 nM; in [17], 156 nM; in assay [18], 2.6 nM. The values for the Kd in [15], in [16] and in assay [19] were 3.09 nM, 3.09 nM and 3.01 nM, respectively. The off-rate constant (koff) in assay [15] worked out at 0.000705 s⁻¹. In addition, the kon in assay [15] came out at 228000 M⁻¹ s⁻¹.

B3: humanized anti-TfR Fab 3A4 VH3 (N54S)/Vκ4 (Fab, V domains shown)
VH: EVQLVQSGSELKKPGASVKVSCTASGFNIKDDYMYWVRQPPGKGLEWIGWIDPESGDTEYASKFQDRVTVTADTSTNTAYMELSSLRSEDTAVYYCTLWLRRGLDYWGQGTLVTVSS
VL: DIVMTQSPLSLPVTPGEPASISCRSSKSLLHSNGYTYLFWFQQRPGQSPRLLIYRMSNLASGVPDRFSGSGSGTDFTLKISRVEAEDVGVYYCMQHLEYPFTFGGGTKVEIKR
notes: also called 3A4 (VH3-N54S/Vk4)
As to B3, the Binding affinity in [7] is 398 nM; in [8], 1.6 nM; in [12] it was 248 nM; in assay [13], 0.65 nM. The EC50 in assay [9] was over 100 nM; in assay [10] it was 1.9 nM; in assay [11], 1.9 nM; in [14], over 100 nM; in [17], 398 nM; in assay [18], 1.6 nM. For the same molecule, the figures for the dissociation constant Kd in [15], in assay [16] and in assay [19] were 1.34 nM, 1.34 nM and 1.39 nM, respectively.

Values taken from patent US11844843 (DYNE THERAPEUTICS, dated 2023).
